Experimental data published in US20230408517A1 (BIO TECHNE, published 2023).
Changes are numbered by the printed parent chain. Like-named read-outs stand apart in the source and are kept apart here.

B1: 1035709 (antibody, V domains shown)
VH: EVQLQQSGPELVKPGASVKISCKTSGYTFTEYTMHWVKQSHGKSLEWIGGINPNIVDTGYNQKFKGKATLTVDKSSSTAYMELRSLTSEDSAVYYCARDGYPLYYAMDYWGQGTSVTVSS
VL: DIQMTQSPSSLSASLGERVSLTCRASQEISGYLSWLQQKPDGTIKRLIYAASTLDSGVPKRFSGSRSGSDYSLTISSLESEDFADYYCLQYASYPWTFGGGTKLEIK
B2: 1035762 (antibody, V domains shown)
VH: B1 VH with I55N, V56G, S88F
VL: B1 VL with S34C, G57A, Y86F
B3: 1035740 (antibody, V domains shown)
VH: EVLLQQSGPELVKPGASVKIPCKASGYTFTDYNMDWVKQSHGKSLEWIGDINPNNGFTIYNQKFKGKATLTVDKSSSTAYMELRSLTSEDTAVYYCAREGYGNYFDYWGQGTTLTVSS
VL: DVLLTQSPAILSVSPGERVSFSCRASQSIGTSLHWYQQRTNGSPRLLIKYVSESISGIPSRFSGSGSGTDFTLSINSVESEDIADYYCQQSSSWPTTFGAGTKLELK

Legend:
[1] = biological target: T1, recombinant SARS-CoV-2 spike S1 RBD (R319-F541), C-terminal 6-His (SARS-CoV-2, UniProt P0DTC2 319-541); assay: sandwich dipstick, detector Ab5-AuNP
[2] = biological target: T2, UK variant RBD (R319-F541 with N501Y), C-terminal 6-His (SARS-CoV-2, UniProt P0DTC2 319-541); assay: sandwich dipstick, detector Ab5-AuNP
[3] = biological target: T3, SA variant RBD (R319-F541 with K417N, E484K, N501Y), C-terminal 6-His (SARS-CoV-2, UniProt P0DTC2 319-541); assay: sandwich dipstick, detector Ab5-AuNP
[4] = biological target: T4, BR P.1 variant RBD (R319-F541 with K417T, E484K, N501Y), C-terminal 6-His (SARS-CoV-2, UniProt P0DTC2 319-541); assay: sandwich dipstick, detector Ab5-AuNP
[5] = biological target: T1, recombinant SARS-CoV-2 spike S1 RBD …; assay: lateral flow NC50, RBD-AuNP vs immobilised ACE2
[6] = biological target: T2, UK variant RBD (R319-F541 with N501Y), …; assay: lateral flow NC50, RBD-AuNP vs immobilised ACE2
[7] = biological target: T3, SA variant RBD (R319-F541 with K417N, …); assay: lateral flow NC50, RBD-AuNP vs immobilised ACE2
[8] = biological target: T4, BR P.1 variant RBD (R319-F541 with …); assay: lateral flow NC50, RBD-AuNP vs immobilised ACE2
[9] = biological target: T1, recombinant SARS-CoV-2 spike S1 RBD …; assay: lateral flow NC50, RBD-AuNP vs immobilised ACE2; remark: listed apart in the source
[10] = biological target: T2, UK variant RBD (R319-F541 with N501Y), …; assay: lateral flow NC50, RBD-AuNP vs immobilised ACE2; remark: listed apart in the source
[11] = biological target: T3, SA variant RBD (R319-F541 with K417N, …); assay: lateral flow NC50, RBD-AuNP vs immobilised ACE2; remark: listed apart in the source
[12] = biological target: T4, BR P.1 variant RBD (R319-F541 with …); assay: lateral flow NC50, RBD-AuNP vs immobilised ACE2; remark: listed apart in the source
[13] = biological target: BR P.2 variant RBD (R319-F541 with E484K) (SARS-CoV-2, UniProt P0DTC2 319-541); assay: lateral flow NC50, RBD-AuNP vs immobilised ACE2
[14] = biological target: K417E RBD (R319-F541 with K417E) (SARS-CoV-2, UniProt P0DTC2 319-541); assay: lateral flow NC50, RBD-AuNP vs immobilised ACE2
[15] = biological target: L452R RBD (R319-F541 with L452R) (SARS-CoV-2, UniProt P0DTC2 319-541); assay: lateral flow NC50, RBD-AuNP vs immobilised ACE2
[16] = biological target: IN v1 variant RBD (R319-F541 with L452R, E484Q) (SARS-CoV-2, UniProt P0DTC2 319-541); assay: lateral flow NC50, RBD-AuNP vs immobilised ACE2
[17] = biological target: T5, IN v2 variant RBD (R319-F541 with L452R, T478K) (SARS-CoV-2, UniProt P0DTC2 319-541); assay: lateral flow NC50, RBD-AuNP vs immobilised ACE2
[18] = biological target: T478K RBD (R319-F541 with T478K) (SARS-CoV-2, UniProt P0DTC2 319-541); assay: lateral flow NC50, RBD-AuNP vs immobilised ACE2
[19] = biological target: T1, recombinant SARS-CoV-2 spike S1 RBD …; assay: flow cytometry, blocking of binding to hACE-2 cells
[20] = biological target: T1, recombinant SARS-CoV-2 spike S1 RBD …; assay: as above; remark: listed apart in the source
[21] = biological target: T4, BR P.1 variant RBD (R319-F541 with …); assay: as above
[22] = biological target: T5, IN v2 variant RBD (R319-F541 with …); assay: as above
[23] = biological target: rSARS2 RBD aa319-541, N439K, C-His (SARS-CoV-2, UniProt P0DTC2 319-541); assay: as above
[24] = biological target: rSARS2-B.1.1.7 S aa16-1211 2x aa mut., C-His (SARS-CoV-2, UniProt P0DTC2 16-1211); assay: as above
[25] = biological target: rSARS2-B.1.1.7 S aa16-1211 4x aa mut., C-His (SARS-CoV-2, UniProt P0DTC2 16-1211); assay: as above
[26] = biological target: rSARS2-B.1.617.2 S aa16-1211 10+4x aa mut., C-His (SARS-CoV-2, UniProt P0DTC2 16-1211); assay: as above
[27] = biological target: T1, recombinant SARS-CoV-2 spike S1 RBD …; assay: sandwich dipstick, detector Ab4-AuNP
[28] = biological target: T2, UK variant RBD (R319-F541 with N501Y), …; assay: sandwich dipstick, detector Ab4-AuNP
[29] = biological target: T3, SA variant RBD (R319-F541 with K417N, …); assay: sandwich dipstick, detector Ab4-AuNP
[30] = biological target: T4, BR P.1 variant RBD (R319-F541 with …); assay: sandwich dipstick, detector Ab4-AuNP

Binder | IC50 [5] | IC50 [6] | IC50 [7] | IC50 [8] | IC50 [9] | IC50 [10] | IC50 [11] | IC50 [12] | IC50 [13] | IC50 [14] | IC50 [15] | IC50 [16] | IC50 [17] | IC50 [18] | percent blocking [19] | percent blocking [20] | percent blocking [21] | percent blocking [22] | percent blocking [23] | percent blocking [24] | other results
B1 | 0.63 µg/mL | 1.08 µg/mL | 0.91 µg/mL | 0.7 µg/mL | 0.63 µg/mL | 1.08 µg/mL | 0.91 µg/mL | 0.7 µg/mL | 0.61 µg/mL | 0.38 µg/mL | 0.92 µg/mL | 0.66 µg/mL | 2.33 µg/mL | 1.35 µg/mL | 94.7% | 94.7% | 90% | 5.3% | 90.8% | 92.1% | detection sensitivity [1]: 0.001 µg/mL; detection sensitivity [2]: 0.001 µg/mL; detection sensitivity [3]: 0.001 µg/mL; detection sensitivity [4]: 0.001 µg/mL; percent blocking [25]: 80.7%; percent blocking [26]: 58.8%
B2 | 0.69 µg/mL | 0.95 µg/mL | 0.7 µg/mL | 0.69 µg/mL | 0.69 µg/mL | 0.95 µg/mL | 0.7 µg/mL | 0.69 µg/mL | 0.85 µg/mL | 0.49 µg/mL | 0.73 µg/mL | 0.77 µg/mL | 2.57 µg/mL | 3.77 µg/mL | 94.1% | 94.1% | 40.5% | 1.5% | 42.7% | 75.7% | detection sensitivity [1]: 0.001 µg/mL; detection sensitivity [2]: 0.001 µg/mL; detection sensitivity [3]: 0.001 µg/mL; detection sensitivity [4]: 0.001 µg/mL; percent blocking [25]: 75.2%; percent blocking [26]: 18.7%
B3 | 1.43 µg/mL | 1.35 µg/mL | 1.83 µg/mL | 1.4 µg/mL | 1.43 µg/mL | 1.35 µg/mL | 1.83 µg/mL | 1.4 µg/mL | 1.48 µg/mL | 1.09 µg/mL | 1.17 µg/mL | 1.79 µg/mL | 1.61 µg/mL | 1.21 µg/mL | 94.6% | 94.6% | 95% | 96.5% | 96% | 94.3% | detection sensitivity [27]: 0.01 µg/mL; detection sensitivity [28]: 0.01 µg/mL; detection sensitivity [29]: 0.01 µg/mL; detection sensitivity [30]: 0.01 µg/mL; percent blocking [25]: 82.1%; percent blocking [26]: 89.6%
